Experimental data reported in patent EP2397495A1 (SANOFI, dated 2011).
Residue numbers refer to the chain shown, from its start. “And” between values parts separate entries of the source, which are not always exact repeats. Equal values may be shown once. One block for each binder: values may come before it.

Target: T1, human GPVI on the platelet surface (human, UniProt Q9HCN6 21-339)
T1 sequence (looked up): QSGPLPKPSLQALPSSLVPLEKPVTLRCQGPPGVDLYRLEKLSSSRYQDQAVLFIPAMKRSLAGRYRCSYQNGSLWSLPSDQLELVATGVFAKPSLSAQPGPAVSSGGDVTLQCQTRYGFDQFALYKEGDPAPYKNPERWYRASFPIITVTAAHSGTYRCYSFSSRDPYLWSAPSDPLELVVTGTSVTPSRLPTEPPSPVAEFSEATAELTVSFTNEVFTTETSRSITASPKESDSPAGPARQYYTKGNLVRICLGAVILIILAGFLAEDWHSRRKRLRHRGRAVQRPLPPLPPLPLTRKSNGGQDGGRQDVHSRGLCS
Experiment: cell-based or functional assay

IC50, inhibition of collagen induced platelet aggregation (human platelet rich plasma): 2.3 µg/mL and 2 µg/mL and 1.1 µg/mL
B1: humanized anti-GPVI Fab VL1 with VH2 (Fab, V domains shown)
VH: QVQLQESGPGLVAPSQSLSITCTVSGFSLTGYGVNWVRQPPSRGLEWLGMIWGDGSTDYQSTLKSRLSISKDNSKSQVFLKMNSLTTDDTARYYCARDLPMDYWGQGTSVTVSS
VL: DIQMTQSPSSLSASVGGRVTITCKASQDINKYIAWYQHKPGKGPSLLIHYTSTLQPGVPSRFSGSGSGRDYSFSISNLQPEDIATYYCLQYANLLTFGGGTKLEIKR

IC50, inhibition of collagen induced platelet aggregation (human platelet rich plasma): 1.5 µg/mL and 2.3 µg/mL
B2: humanized anti-GPVI Fab VL1 with VH1 (Fab, V domains shown)
VH: B1 VH with N73T
VL: B1 VL

IC50, inhibition of collagen induced platelet aggregation (human platelet rich plasma): 1 µg/mL and 2.3 µg/mL and 2 µg/mL
B3: humanized anti-GPVI Fab VL3 with VH4 (Fab, V domains shown)
VH: B1 VH with G31Y
VL: B1 VL with N93L

IC50, inhibition of collagen induced platelet aggregation (human platelet rich plasma): 1.4 µg/mL and 2.4 µg/mL and 2.3 µg/mL
B4: humanized anti-GPVI Fab VL2 with VH2 (Fab, V domains shown)
VH: B1 VH
VL: B1 VL with N93H

IC50, inhibition of collagen induced platelet aggregation (human platelet rich plasma): 1.5 µg/mL and 1.7 µg/mL
B5: humanized anti-GPVI Fab VL1 with VH3 (Fab, V domains shown)
VH: B1 VH with Q1E, Q5L, Q16G, S42G, R43K, T86R, Q106L
VL: B1 VL

IC50, inhibition of collagen induced platelet aggregation (human platelet rich plasma): 1.9 µg/mL and 0.9 µg/mL and 2.1 µg/mL
B6: humanized anti-GPVI Fab VL3 with VH2 (Fab, V domains shown)
VH: B1 VH
VL: B1 VL with N93L

IC50, inhibition of collagen induced platelet aggregation (human platelet rich plasma): 1.9 µg/mL and 2.3 µg/mL and 1.2 µg/mL
B7: humanized anti-GPVI Fab VL1 with VH5 (Fab, V domains shown)
VH: B1 VH with Y103E
VL: B1 VL

IC50, inhibition of collagen induced platelet aggregation (human platelet rich plasma): 1.6 µg/mL and 1.8 µg/mL and 1.2 µg/mL
B8: humanized anti-GPVI Fab VL1 with VH4 (Fab, V domains shown)
VH: B1 VH with G31Y
VL: B1 VL
